Results taken from patent publication US10501502B2, “Allophycocyanin alpha-subunit evolved labeling proteins (smURFPs)” (The Regents of the University of California, priority 2016, dated 2019).

Assays:
[1] = Incorporation rates in vitro of BV on initially chromophore-free smURFP; type: biochemical
Procedure: EX and EM spectra were obtained using SPEX Fluorolog fluorometer (Horiba). Absorbance spectra were obtained using UV-VIS Spectrophotometer Cary Eclipse (Varian) or UV-2700 (Shimadzu). Quantum yield was determined relative to Cy5. Incorporation rates of BV on 0.5 μM smURFP was performed by addition of smURFP to PBS alone or with 20% fetal bovine serum (FBS) and mixed by pipetting in a quartz cuvette. Chromophore was added last, mixed by pipetting, and fluorescence was recorded using SPEX Fluorolog fluorometer (Horiba). Photobleaching was characterized on bubbles of purified FP or Cy5 within mineral oil using light from a 150 W xenon arc lamp with 100% light through EX/EM=628(40)/680(30) nm for smURFP, TDsmURFP, and Cy5 or EX/EM=665 (45)/725 (50) nm for IFP 1.4 focused with a 40×, 1.2 numerical aperture C-Apochromat oil-immersion lens on a Zeiss Axiovert 200M inverted microscope. Photobleaching times were normalized to reflect an initial illumination intensity producing 1,000 photons per fluorescent molecule per second as previously described^37.

primary cortical neurons = assay: Rat primary neuronal cultures transduced with smURFP T2A mCherry lentivirus; type: cell-based; settings: 15 d after transduction
Text: smURFP-T2A-mCherry (GenBank AY678264), smURFP-T2A-mCardinal, smURFP, and mCardinal (Addgene 51311) were subcloned in a generation-two lentiviral vector with the CMV promoter for constitutive expression. Viruses were produced as described^45. The procedures for extracting cultured neurons from rat pups were approved by the UCSD Institutional Animal Care and Use Committee (IACUC, #503172R) and are consistent with the recommendations of the American Veterinary Medical Association. Primary cortical neurons were dissociated by papain from postnatal day 2 Sprague Dawley rats (n=6) of either sex and combined, plated on poly-D-lysine-coated glass-bottom culture dishes (MatTek, #P35G-0-14-C), and cultured in Neurobasal A medium+1×B27 supplement (Life Technologies)+2 mM GlutaMAX (Life Technologies)+1×penicillin-streptomycin (Fisher Scientific). Prior to fluorescence imaging, 25 μM BV was added for 10 min, removed, and washed with 2×2 ml Hank's Balanced Salt Solution (HBSS, Life Technologies)+2 g/L glucose+20 mM HEPES (pH 7.4), referred to as imaging solution. Fluorescence imaging was performed in vitro 15 d after infection using a Zeiss Axiovert 200M inverted microscope controlled by SlideBook software. FPs were imaged as follows: smURFP and TDsmURFP, EX/EM=628(40)/680(30) nm; and mCherry, EX/EM=580(20)/653(95) nm.

[2] = 0.5 μM smURFP in PBS + 20% FBS, + 0.1 μM BV
[3] = 0.5 μM smURFP in PBS + 20% FBS, + 0.1 μM BV (pH 9.4)
[4] = 0.5 μM smURFP in PBS + 20% FBS, + 0.1 μM BV + 1 mM DTT
[5] = 0.5 μM smURFP in PBS + 20% FBS, + 1 μM BV
[6] = 0.5 μM smURFP in PBS + 20% FBS, + 1 μM BV (pH 9.4)
[7] = 0.5 μM smURFP in PBS + 20% FBS, + 1 μM BV + 1 mM DTT
[8] = 0.5 μM smURFP in PBS + 20% FBS, + 10 μM BV
[9] = 0.5 μM smURFP in PBS + 20% FBS, + 10 μM BV (pH 9.4)
[10] = 0.5 μM smURFP in PBS + 20% FBS, + 10 μM BV + 1 mM DTT
[11] = 0.5 μM smURFP in PBS + 20% FBS, Avg. 3 Conc.
[12] = 0.5 μM smURFP in PBS + 20% FBS, Avg. 3 Conc. (pH 9.4)
[13] = 0.5 μM smURFP in PBS + 20% FBS, Avg. 3 Conc. + 1 mM DTT
[14] = 0.5 μM smURFP in PBS, + 0.1 μM BV
[15] = 0.5 μM smURFP in PBS, + 0.1 μM BV (pH 8)
[16] = 0.5 μM smURFP in PBS, + 0.1 μM BV + 1 mM DTT
[17] = 0.5 μM smURFP in PBS, + 1 μM BV
[18] = 0.5 μM smURFP in PBS, + 1 μM BV (pH 8)
[19] = 0.5 μM smURFP in PBS, + 1 μM BV + 1 mM DTT
[20] = 0.5 μM smURFP in PBS, + 10 μM BV
[21] = 0.5 μM smURFP in PBS, + 10 μM BV (pH 8)
[22] = 0.5 μM smURFP in PBS, + 10 μM BV + 1 mM DTT
[23] = 0.5 μM smURFP in PBS, Avg. 3 Conc.
[24] = 0.5 μM smURFP in PBS, Avg. 3 Conc. (pH 8)
[25] = 0.5 μM smURFP in PBS, Avg. 3 Conc. + 1 mM DTT

B1: smURFP: small ultra-red fluorescent protein, SEQ ID NO: 13, homodimer, covalently attaches biliverdin (protein)
chain: MKTSEQRVNIATLLTENKKKIVDKASQDLWRRHPDLIAPGGIAFSQRDRALCLRDYGWFLHLITFCLLAGDKGPIESIGLISIREMYNSLGVPVPAMMESIRCLKEASLSLLDEEDANETAPYFDYIIKAMS
modifications: homodimer; biliverdin chromophore; smRUFP Variant Polypeptide
**Q.** For B1, which A [1, 2] is on record?
**A.** The A was 1.1.

**Q.** What about the T50% [1, 2] of the same molecule?
**A.** Its T50% is 43 min.

**Q.** And the k [1, 2]?
**A.** The k was 0.016 min⁻¹.

**Q.** What about the A [1, 3] of the same molecule?
**A.** Its A is 0.95.

**Q.** And the T50% [1, 3]?
**A.** The T50% was 7.1 min.

**Q.** And the k [1, 3]?
**A.** Its k is 0.097 min⁻¹.

**Q.** And the A [1, 4]?
**A.** The A was 0.95.

**Q.** What about the T50% [1, 4] of the same molecule?
**A.** The T50% was 30 min.

**Q.** And the k [1, 4]?
**A.** Its k is 0.023 min⁻¹.

**Q.** And the A [1, 5]?
**A.** Its A is 1.1.

**Q.** What about the T50% [1, 5] of the same molecule?
**A.** Its T50% is 58 min.

**Q.** What about the k [1, 5] of the same molecule?
**A.** The k was 0.012 min⁻¹.

**Q.** And the A [1, 6]?
**A.** Its A is 0.99.

**Q.** What about the T50% [1, 6] of the same molecule?
**A.** Its T50% is 16 min.

**Q.** And the k [1, 6]?
**A.** Its k is 0.043 min⁻¹.

**Q.** What about the A [1, 7] of the same molecule?
**A.** The A was 0.95.

**Q.** And the T50% [1, 7]?
**A.** The T50% was 32 min.

**Q.** And the k [1, 7]?
**A.** The k was 0.022 min⁻¹.

**Q.** And the A [1, 8]?
**A.** The A was 1.1.

**Q.** And the T50% [1, 8]?
**A.** The T50% was 46 min.

**Q.** What about the k [1, 8] of the same molecule?
**A.** Its k is 0.015 min⁻¹.

**Q.** And the A [1, 9]?
**A.** The A was 0.99.

**Q.** And the T50% [1, 9]?
**A.** Its T50% is 11 min.

**Q.** And the k [1, 9]?
**A.** Its k is 0.063 min⁻¹.

**Q.** And the A [1, 10]?
**A.** The A was 0.96.

**Q.** And the T50% [1, 10]?
**A.** Its T50% is 16 min.

**Q.** And the k [1, 10]?
**A.** Its k is 0.043 min⁻¹.

**Q.** And the A [1, 11]?
**A.** Its A is 1.1.

**Q.** What about the T50% [1, 11] of the same molecule?
**A.** Its T50% is 50 min.

**Q.** What about the k [1, 11] of the same molecule?
**A.** Its k is 0.014 min⁻¹.

**Q.** And the A [1, 12]?
**A.** Its A is 0.98.

**Q.** And the T50% [1, 12]?
**A.** The T50% was 11 min.

**Q.** And the k [1, 12]?
**A.** Its k is 0.066 min⁻¹.

**Q.** What about the A [1, 13] of the same molecule?
**A.** The A was 0.95.

**Q.** And the T50% [1, 13]?
**A.** The T50% was 24 min.

**Q.** What about the k [1, 13] of the same molecule?
**A.** The k was 0.029 min⁻¹.

**Q.** What about the A [1, 14] of the same molecule?
**A.** The A was 1.1.

**Q.** And the T50% [1, 14]?
**A.** Its T50% is 29 min.

**Q.** What about the k [1, 14] of the same molecule?
**A.** Its k is 0.024 min⁻¹.

**Q.** And the A [1, 15]?
**A.** The A was 1.1.

**Q.** What about the T50% [1, 15] of the same molecule?
**A.** Its T50% is 24 min.

**Q.** What about the k [1, 15] of the same molecule?
**A.** Its k is 0.029 min⁻¹.

**Q.** What about the A [1, 16] of the same molecule?
**A.** The A was 1.1.

**Q.** And the T50% [1, 16]?
**A.** The T50% was 58 min.

**Q.** And the k [1, 16]?
**A.** The k was 0.012 min⁻¹.

**Q.** What about the A [1, 17] of the same molecule?
**A.** The A was 1.1.

**Q.** What about the T50% [1, 17] of the same molecule?
**A.** The T50% was 46 min.

**Q.** What about the k [1, 17] of the same molecule?
**A.** Its k is 0.015 min⁻¹.

**Q.** And the A [1, 18]?
**A.** Its A is 1.1.

**Q.** What about the T50% [1, 18] of the same molecule?
**A.** The T50% was 24 min.

**Q.** And the k [1, 18]?
**A.** The k was 0.029 min⁻¹.

**Q.** What about the A [1, 19] of the same molecule?
**A.** Its A is 1.1.

**Q.** And the T50% [1, 19]?
**A.** The T50% was 63 min.

**Q.** What about the k [1, 19] of the same molecule?
**A.** Its k is 0.011 min⁻¹.

**Q.** And the A [1, 20]?
**A.** Its A is 1.1.

**Q.** And the T50% [1, 20]?
**A.** The T50% was 46 min.

**Q.** What about the k [1, 20] of the same molecule?
**A.** The k was 0.015 min⁻¹.

**Q.** What about the A [1, 21] of the same molecule?
**A.** The A was 1.1.

**Q.** And the T50% [1, 21]?
**A.** The T50% was 22 min.

**Q.** What about the k [1, 21] of the same molecule?
**A.** Its k is 0.032 min⁻¹.

**Q.** And the A [1, 22]?
**A.** The A was 1.1.

**Q.** And the T50% [1, 22]?
**A.** The T50% was 46 min.

**Q.** What about the k [1, 22] of the same molecule?
**A.** Its k is 0.015 min⁻¹.

**Q.** And the A [1, 23]?
**A.** The A was 1.0.

**Q.** And the T50% [1, 23]?
**A.** The T50% was 39 min.

**Q.** And the k [1, 23]?
**A.** Its k is 0.018 min⁻¹.

**Q.** What about the A [1, 24] of the same molecule?
**A.** Its A is 1.1.

**Q.** What about the T50% [1, 24] of the same molecule?
**A.** The T50% was 2 min.

**Q.** And the k [1, 24]?
**A.** Its k is 0.030 min⁻¹.

**Q.** And the A [1, 25]?
**A.** Its A is 1.1.

**Q.** And the T50% [1, 25]?
**A.** The T50% was 53 min.

**Q.** What about the k [1, 25] of the same molecule?
**A.** Its k is 0.013 min⁻¹.

**Q.** And the “chromophore maturation or attachment t50%” value ([1]; BV attachment)?
**A.** The value was 39^ min.

**Q.** And the “lysosomal aggregation in neuronal culture” value (primary cortical neurons)?
**A.** Its value is “not seen”.
